According to article PMC11374129:

Target: T1, EnvZ (Escherichia coli K12) (UniProt P0AEJ4)
T1 sequence: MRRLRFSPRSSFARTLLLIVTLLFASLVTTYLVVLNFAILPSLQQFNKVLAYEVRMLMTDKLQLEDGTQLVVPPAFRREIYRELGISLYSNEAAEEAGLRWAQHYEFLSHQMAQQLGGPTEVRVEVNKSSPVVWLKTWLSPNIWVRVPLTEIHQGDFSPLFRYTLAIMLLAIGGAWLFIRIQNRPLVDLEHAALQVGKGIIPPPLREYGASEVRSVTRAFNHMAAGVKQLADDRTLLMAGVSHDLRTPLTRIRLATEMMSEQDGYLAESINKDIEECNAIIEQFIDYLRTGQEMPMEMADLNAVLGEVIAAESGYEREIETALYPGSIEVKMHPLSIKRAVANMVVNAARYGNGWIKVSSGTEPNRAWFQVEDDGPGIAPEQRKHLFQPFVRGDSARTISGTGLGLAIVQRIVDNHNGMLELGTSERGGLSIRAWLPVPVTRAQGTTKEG
Assay: EMSA

“CACGGCGTGTTCTTCCGACAACGTTCTTAAAAAAACTTCTCTCTCCCAGGTCACACCAGTCACAGAGATTGGCTGTGAGTGTCGCTGTGCACAAACCGCGCACAGACTCATACAGTCCCGGCGGTTCCGTTCACAACCCACGCCTCATCCCCACCGACCCAACACACACCCCACAGTCATCGCCACCGTCATCCACAACTCCGAC (double strand) [oriC]” was tested, and the binding was “no binding”.
